Where a chain is given by its changes, count along the chain named.
T1: human GIP receptor (human) (UniProt P48546)
T1 sequence (looked up): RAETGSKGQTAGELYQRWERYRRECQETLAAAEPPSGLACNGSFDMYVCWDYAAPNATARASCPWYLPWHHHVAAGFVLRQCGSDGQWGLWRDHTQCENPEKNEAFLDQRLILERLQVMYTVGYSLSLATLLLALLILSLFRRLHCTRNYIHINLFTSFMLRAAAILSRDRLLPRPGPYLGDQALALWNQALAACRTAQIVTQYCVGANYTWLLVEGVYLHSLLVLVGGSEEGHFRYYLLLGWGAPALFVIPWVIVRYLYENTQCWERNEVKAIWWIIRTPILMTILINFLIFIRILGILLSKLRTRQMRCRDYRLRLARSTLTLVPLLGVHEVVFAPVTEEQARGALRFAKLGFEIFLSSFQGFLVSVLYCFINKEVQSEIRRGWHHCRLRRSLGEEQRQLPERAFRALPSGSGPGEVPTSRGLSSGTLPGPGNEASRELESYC

B1: Example 1133 (peptide)
chain: YXQGTFTSDXXQXLDXKAQXQFIQXLIAGGPSSGEPPPSGGGE
modifications: not fully specified; non-natural residues; C18 diacid-γGlu-e on Lys; C-terminal amide; synthetic construct; SITE 2: note = 2-Aminoisobutyric Acid; SITE 10: note = 3-(4-Pyridyl)-L-alanine; SITE 11: note = alpha-methyl-L-serine; SITE 13: note = alpha-methyl-leucine; SITE 16: note = L-ornithine; SITE 17: note = Lysine is chemically modified through conjugation of the epsilon-amino group
B2: Example 1137 (peptide)
chain: B1 chain with A28E, G29X, E35A
modifications: not fully specified; non-natural residues; γ-Glu-C18 diacid acyl; C-terminal amide; synthetic construct; SITE 2: note = 2-Aminoisobutyric Acid; SITE 10: note = 3-(4-Pyridyl)-L-alanine; SITE 11: note = alpha-methyl-L-serine; SITE 13: note = alpha-methyl-leucine; SITE 16: note = L-ornithine; SITE 17: note = Lysine is chemically modified through conjugation of the epsilon-amino group
B3: Example 1143 (peptide)
chain: YXQGTXTSDXXIXLDXKAQXEFIEXLIEGGPSSGEPPPTGE
modifications: Non-natural residues; K acylated AEEA-γGlu-C18 diacid; C-terminal amide; synthetic construct; SITE 2: note = 2-Aminoisobutyric Acid; SITE 6: note = alpha-methyl-2-fluoro-L-phenylalanine; SITE 10: note = 3-(4-Pyridyl)-L-alanine; SITE 11: note = alpha-methyl-L-serine; SITE 13: note = alpha-methyl-leucine; SITE 16: note = L-ornithine; SITE 17: note = Lysine is chemically mo
B4: Example 1145 (peptide)
chain: B3 chain with T39G
modifications: non-natural residues; lipidated Lys AEEA-γGlu-C18 diacid; C-term amide; synthetic construct; SITE 2: note = 2-Aminoisobutyric Acid; SITE 6: note = alpha-methyl-2-fluoro-L-phenylalanine; SITE 10: note = 3-(4-Pyridyl)-L-alanine; SITE 11: note = alpha-methyl-L-serine; SITE 13: note = alpha-methyl-leucine; SITE 16: note = L-ornithine; SITE 17: note = Lysine is chemically mo
B5: Example 1147 (peptide)
chain: B3 chain with T39E, G40S
modifications: non-natural residues; K acylated AEEA-γGlu-C18 diacid; C-amide; synthetic construct; SITE 2: note = 2-Aminoisobutyric Acid; SITE 6: note = alpha-methyl-2-fluoro-L-phenylalanine; SITE 10: note = 3-(4-Pyridyl)-L-alanine; SITE 11: note = alpha-methyl-L-serine; SITE 13: note = alpha-methyl-leucine; SITE 16: note = L-ornithine; SITE 17: note = Lysine is chemically mo
B6: Example 1149 (peptide)
chain: B3 chain with T39E
modifications: non-natural residues; AEEA-γGlu-C18 diacid on Lys; C-terminal amide; synthetic construct; SITE 2: note = 2-Aminoisobutyric Acid; SITE 6: note = alpha-methyl-2-fluoro-L-phenylalanine; SITE 10: note = 3-(4-Pyridyl)-L-alanine; SITE 11: note = alpha-methyl-L-serine; SITE 13: note = alpha-methyl-leucine; SITE 16: note = L-ornithine; SITE 17: note = Lysine is chemically mo
B7: Example 1151 (peptide)
chain: B3 chain with T39S
modifications: not fully specified; non-natural residues; acylated Lys; C-terminal amide; synthetic construct; SITE 2: note = 2-Aminoisobutyric Acid; SITE 6: note = alpha-methyl-2-fluoro-L-phenylalanine; SITE 10: note = 3-(4-Pyridyl)-L-alanine; SITE 11: note = alpha-methyl-L-serine; SITE 13: note = alpha-methyl-leucine; SITE 16: note = L-ornithine; SITE 17: note = Lysine is chemically mo
B8: Example 1152 (peptide)
chain: B3 chain with I27V, E35A
modifications: not fully specified; acylated lysine AEEA-γGlu-C18 diacid; non-natural residues; C-terminal amide; synthetic construct; SITE 2: note = 2-Aminoisobutyric Acid; SITE 6: note = alpha-methyl-2-fluoro-L-phenylalanine; SITE 10: note = 3-(4-Pyridyl)-L-alanine; SITE 11: note = alpha-methyl-L-serine; SITE 13: note = alpha-methyl-leucine; SITE 16: note = L-ornithine; SITE 17: note = Lysine is chemically mo
B9: Example 1153 (peptide)
chain: B3 chain with I27V
modifications: not fully specified; Aib, αMeF(2F), 4Pal, αMeS, Orn, Me4Pal, αMeY; acylated; amide; synthetic construct; SITE 2: note = 2-Aminoisobutyric Acid; SITE 6: note = alpha-methyl-2-fluoro-L-phenylalanine; SITE 10: note = 3-(4-Pyridyl)-L-alanine; SITE 11: note = alpha-methyl-L-serine; SITE 13: note = alpha-methyl-leucine; SITE 16: note = L-ornithine; SITE 17: note = Lysine is chemically mo
B10: Example 1154 (peptide)
chain: B3 chain with I27V, E35A, T39G
modifications: not fully specified; non-natural residues; AEEA-γGlu-C18 diacid acyl; C-terminal amide; synthetic construct; SITE 2: note = 2-Aminoisobutyric Acid; SITE 6: note = alpha-methyl-2-fluoro-L-phenylalanine …; SITE 10: note = 3-(4-Pyridyl)-L-alanine; SITE 11: note = alpha-methyl-L-serine; SITE 13: note = alpha-methyl-leucine; SITE 16: note = L-ornithine; SITE 17: note = Lysine is chemically mo

Target: hGLP-1R (Homo sapiens, UniProt P43220)
Test: cell-based or functional assay

Sequence of hGLP-1R (P43220 24-463): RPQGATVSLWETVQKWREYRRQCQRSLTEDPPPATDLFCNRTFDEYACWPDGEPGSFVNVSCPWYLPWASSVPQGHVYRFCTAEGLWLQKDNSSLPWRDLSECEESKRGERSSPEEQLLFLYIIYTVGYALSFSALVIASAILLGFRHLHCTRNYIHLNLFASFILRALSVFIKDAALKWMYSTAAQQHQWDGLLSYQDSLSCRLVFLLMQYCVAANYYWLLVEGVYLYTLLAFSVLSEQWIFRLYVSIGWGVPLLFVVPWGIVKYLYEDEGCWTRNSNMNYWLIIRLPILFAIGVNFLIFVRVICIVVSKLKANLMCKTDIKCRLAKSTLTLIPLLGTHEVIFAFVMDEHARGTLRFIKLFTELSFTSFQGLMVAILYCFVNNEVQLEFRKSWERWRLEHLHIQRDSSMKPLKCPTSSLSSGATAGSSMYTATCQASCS

B1 and B2 are within 1.5-fold of each other in Relative cAMP EC50: 0.768 nM for the first, 0.582 nM for the second.

B3 and B4 are within 1.5-fold of each other in Relative cAMP EC50: 0.381 nM for the first, 0.313 nM for the second.

B5 and B6 are within 1.5-fold of each other in Relative cAMP EC50: 0.347 nM for the first, 0.352 nM for the second.

B7 and B8 are within 1.5-fold of each other in Relative cAMP EC50: 0.262 nM for the first, 0.371 nM for the second.

B9 and B10 are within 1.5-fold of each other in Relative cAMP EC50: 0.33 nM for the first, 0.344 nM for the second.

B1 and B2 are within 1.5-fold of each other in cAMP Rel EC50 (1% HSA): 47.8 nM for the first, 36.2 nM for the second.

B3 and B4 are within 1.5-fold of each other in cAMP Rel EC50 (1% HSA): 49.6 nM for the first, 39.1 nM for the second.

B5 and B6 are within 1.5-fold of each other in cAMP Rel EC50 (1% HSA): 45.4 nM for the first, 52.2 nM for the second.

Work on B7 yielded a cAMP Rel EC50 (1% HSA) of 40 nM.

B8 and B9 are within 1.5-fold of each other in cAMP Rel EC50 (in the presence of 1% HSA): 43.8 nM for the first, 52.7 nM for the second.

B10 was tested, and the cAMP Rel EC50 (in the presence of 1% HSA) was 44.5 nM.

Target: T1, human GIP receptor (human)
Test: cell-based or functional assay

Compared with B1, B2 is 2.2-fold lower in Relative cAMP EC50: 0.0719 nM for the first, 0.0334 nM for the second.

B3 and B4 are within 1.5-fold of each other in Relative cAMP EC50: 0.0087 nM for the first, 0.00689 nM for the second.

B5 and B6 are within 1.5-fold of each other in Relative cAMP EC50: 0.00753 nM for the first, 0.00804 nM for the second.

Compared with B7, B8 is 3-fold higher in Relative cAMP EC50: 0.00339 nM for the first, 0.0101 nM for the second.

B9 and B10 are within 1.5-fold of each other in Relative cAMP EC50: 0.0109 nM for the first, 0.00879 nM for the second.

Compared with B1, B2 is 2.1-fold lower in cAMP Rel EC50 (1% HSA): 4.24 nM for the first, 2.05 nM for the second.

B3 and B4 are within 1.5-fold of each other in cAMP Rel EC50 (1% HSA): 0.751 nM for the first, 0.848 nM for the second.

B5 and B6 are within 1.5-fold of each other in cAMP Rel EC50 (1% HSA): 0.831 nM for the first, 0.96 nM for the second.

Work on B7 yielded a cAMP Rel EC50 (1% HSA) of 0.287 nM.

B8 and B9 are within 1.5-fold of each other in cAMP Rel EC50 (in the presence of 1% HSA): 1.21 nM for the first, 1.39 nM for the second.

B10 showed a cAMP Rel EC50 (in the presence of 1% HSA) of 0.954 nM.

Target: human glucagon receptor (human) (UniProt P47871)
Test: cell-based or functional assay

Sequence of human glucagon receptor (human) (P47871 26-477): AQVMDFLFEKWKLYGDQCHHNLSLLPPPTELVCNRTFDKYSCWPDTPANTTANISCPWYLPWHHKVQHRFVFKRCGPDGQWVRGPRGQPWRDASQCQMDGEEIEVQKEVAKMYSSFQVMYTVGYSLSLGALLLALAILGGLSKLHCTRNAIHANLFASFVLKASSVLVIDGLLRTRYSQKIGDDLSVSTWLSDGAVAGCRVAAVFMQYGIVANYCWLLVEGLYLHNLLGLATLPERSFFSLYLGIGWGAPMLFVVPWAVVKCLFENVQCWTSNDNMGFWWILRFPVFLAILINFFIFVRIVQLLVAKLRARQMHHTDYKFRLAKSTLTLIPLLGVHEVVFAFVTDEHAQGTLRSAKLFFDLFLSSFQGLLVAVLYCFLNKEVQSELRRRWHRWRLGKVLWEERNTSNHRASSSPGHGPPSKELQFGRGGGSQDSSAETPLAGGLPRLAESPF

Compared with B1, B2 is 4.8-fold higher in Relative cAMP EC50: 2.95 nM for the first, 14.2 nM for the second.

B3 and B4 are within 1.5-fold of each other in Relative cAMP EC50: 1.42 nM for the first, 1.07 nM for the second.

B5 and B6 are within 1.5-fold of each other in Relative cAMP EC50: 1.17 nM for the first, 1.37 nM for the second.

First: B7
Second: B8
The Relative cAMP EC50 of the first is 1.8-fold lower: 1.31 nM for the first, 2.32 nM for the second.

First: B9
Second: B10
The Relative cAMP EC50 of the first is 2.4-fold lower: 2.69 nM for the first, 6.42 nM for the second.

Going from B1 to B2, the cAMP Rel EC50 (1% HSA) rises from 216 nM to 663 nM (3.1-fold).

B3 and B4 are within 1.5-fold of each other in cAMP Rel EC50 (1% HSA): 182 nM for the first, 148 nM for the second.

B5 and B6 are within 1.5-fold of each other in cAMP Rel EC50 (1% HSA): 167 nM for the first, 184 nM for the second.

In the case of B7, the cAMP Rel EC50 (1% HSA) is reported as 206 nM.

B8 and B9 are within 1.5-fold of each other in cAMP Rel EC50 (in the presence of 1% HSA): 287 nM for the first, 215 nM for the second.

In the case of B10, the cAMP Rel EC50 (in the presence of 1% HSA) is reported as 320 nM.
